Data taken from doi:10.1101/2024.06.17.599268 (bioRxiv, 2024).
Substitutions are numbered along the chain they refer to. In names and notes the source's numbering stands.

B1: Rab15_(1-176) (natural protein)
chain: MAKQYDVLFRLLLIGDSGVGKTCLLCRFTDNEFHSSHISTIGVDFKMKTIEVDGIKVRIQIWDTAGQERYQTITKQYYRRAQGIFLVYDISSERSYQHIMKWVSDVDEYAPEGVQKILIGNKADEEQKRQVGREQGQQLAKEYGMDFYETSACTNLNIKESFTRLTELVLQAHRKE
B2: bMERB K918A_E921A (domain or fragment)
chain: AEEAMKRFCKAQTIQRRLNEIEAALRELEAEGVKLELALRRQSSSPEQQKKLWVGQLLQLVDKKNSLVAEEAELMITVQELNLEEKQWQLDQELRGYMNREENLKTAADRQAEDQVLRKLVDLVNQRDALIRFQEERRLSELALGTGAQG
B3: bMERB R1044A (domain or fragment)
chain: B2 chain with A1K, A4E, R127A
B4: bMERB E939A (domain or fragment)
chain: B2 chain with A1K, A4E, E22A
B5: bMERB V1041A (domain or fragment)
chain: B2 chain with A1K, A4E, V124A
B6: bMERB_(L1047A_F1050A) (domain or fragment)
chain: B2 chain with A1K, A4E, L130A, F133A
B7: bMERB L977A_V978A (domain or fragment)
chain: B2 chain with A1K, A4E, L60A, V61A
B8: bMERB L956S (domain or fragment)
chain: B2 chain with A1K, A4E, L39S
B9: bMERB V1038A (domain or fragment)
chain: B2 chain with A1K, A4E, V121A
B10: bMERB I1048A (domain or fragment)
chain: B2 chain with A1K, A4E, I131A
B11: bMERB_(M992A_I993A) (domain or fragment)
chain: B2 chain with A1K, A4E, M75A, I76A
B12: bMERB L974A_L975A (domain or fragment)
chain: B2 chain with A1K, A4E, L57A, L58A
B13: bMERB_(V985A) (domain or fragment)
chain: B2 chain with A1K, A4E, V68A
B14: bMERB W970A (domain or fragment)
chain: B2 chain with A1K, A4E, W53A
B15: bMERB F925A (domain or fragment)
chain: B2 chain with A1K, A4E, F8A
B16: Mical1 bMERB domain (residues 918-1067) (domain or fragment)
chain: B2 chain with A1K, A4E
B17: bMERB L1011S (domain or fragment)
chain: B2 chain with A1K, A4E, L94S
B18: bMERB_(V1041A_I1048A) (domain or fragment)
chain: B2 chain with A1K, A4E, V124A, I131A
B19: Rab10_(1-175) (natural protein)
chain: MAKKTYDLLFKLLLIGDSGVGKTCVLFRFSDDAFNTTFISTIGIDFKIKTVELQGKKIKLQIWDTAGQERFHTITTSYYRGAMGIMLVYDITNGKSFENISKWLRNIDEHANEDVERMLLGNKCDMDDKRVVPKGKGEQIAREHGIRFFETSAKANINIEKAFLTLAEDILRKTP

How the values were obtained:
[1] = target: Mical1 MO-CH-LIM (residues 1-781) (human) (UniProt Q8TDZ2); assay: ITC
[2] = target: B16; assay: ITC
Rab8a_(1-176) [3] = target: T1, Rab8a_(1-176) (human, UniProt P61006 1-176); assay: SEC
T1 sequence: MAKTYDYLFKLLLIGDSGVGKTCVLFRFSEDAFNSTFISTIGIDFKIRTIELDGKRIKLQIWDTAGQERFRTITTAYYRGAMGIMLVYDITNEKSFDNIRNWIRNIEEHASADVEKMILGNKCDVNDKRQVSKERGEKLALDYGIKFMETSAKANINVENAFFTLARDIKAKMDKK

[4] = target: T2, Mical1 MO-CH-LIM (residues 1-781) (human, UniProt Q8TDZ2 1-781); assay: ITC
T2 sequence: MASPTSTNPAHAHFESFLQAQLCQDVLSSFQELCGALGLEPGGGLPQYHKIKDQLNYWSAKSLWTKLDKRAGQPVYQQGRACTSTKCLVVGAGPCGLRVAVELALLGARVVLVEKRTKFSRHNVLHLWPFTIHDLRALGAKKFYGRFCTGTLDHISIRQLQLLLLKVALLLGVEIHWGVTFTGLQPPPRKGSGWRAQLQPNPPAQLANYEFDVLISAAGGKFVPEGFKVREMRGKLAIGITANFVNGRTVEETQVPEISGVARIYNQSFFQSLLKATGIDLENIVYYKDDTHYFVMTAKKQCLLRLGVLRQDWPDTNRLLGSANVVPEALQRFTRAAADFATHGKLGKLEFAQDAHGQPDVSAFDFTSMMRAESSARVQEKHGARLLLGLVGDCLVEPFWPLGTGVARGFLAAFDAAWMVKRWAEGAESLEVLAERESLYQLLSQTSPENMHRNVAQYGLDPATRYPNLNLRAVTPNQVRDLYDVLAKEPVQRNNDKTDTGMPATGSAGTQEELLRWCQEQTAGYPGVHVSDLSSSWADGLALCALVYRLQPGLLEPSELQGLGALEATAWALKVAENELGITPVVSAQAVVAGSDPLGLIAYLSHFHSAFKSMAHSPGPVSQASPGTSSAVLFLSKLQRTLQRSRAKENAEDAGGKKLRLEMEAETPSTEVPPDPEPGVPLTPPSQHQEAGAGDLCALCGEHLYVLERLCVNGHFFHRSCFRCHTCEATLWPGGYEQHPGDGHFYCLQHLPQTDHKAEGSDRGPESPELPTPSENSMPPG

Rab8a_(1-176) [5] = target: T1, Rab8a_(1-176); assay: ITC
Rab10_(1-175) = target: B19; assay: SEC
Rab15_(1-176) = target: B1; assay: SEC

Molecule | binding result (Rab8a_(1-176) [3]) | fold reduction in affinity against wild-type bMERB [4] [fold] | other results
Mical1 bMERB domain (residues 918-1067) (from UniProt Q8TDZ2 918-1067) (domain or fragment) | – | – | Kd [1]: 2700 nM; stoichiometry N [1]: 1
B1 | – | – | KD of the high-affinity site (Ct-RBS2) [2]: 2.5 nM; KD of the low-affinity site (Nt-RBS1) [2]: 2910 nM; stoichiometry N [2]: 2
B2 | binds | 2 | –
B3 | binds | – | –
B4 | binds | > 5 | –
B5 | binds | – | –
B6 | binds | – | –
B7 | binds | 6 | –
B8 | binds | > 9 | –
B9 | binds | – | –
B10 | binds | – | –
B11 | binds | > 25 | –
B12 | binds | 6 | –
B13 | – | 10 | binding result (Rab8a_(1-176) [5]): binds
B14 | binds | 4 | –
B15 | binds | – | –
B16 | binds | – | binding result (Rab10_(1-175)): binds; binding result (Rab15_(1-176)): binds
B17 | binds | – | –
B18 | – | – | binding result [4]: binds
B19 | – | – | KD of the high-affinity site (Ct-RBS2) [2]: 11 nM; KD of the low-affinity site (Nt-RBS1) [2]: 3730 nM; stoichiometry N [2]: 2
